Experimental findings from patent publication US20160075778A1 (Regeneron, published 2016) are described below.

The labels stand for the following.
B1: H1H059P (antibody, V domains shown)
VH: QVQLVESGGGVVQPGRSLRLSCAASGFAFSNYGMHWVRQAPGKGLEWVTFISYDGSNKYYADSVKGRFTISRDNSKNTLYLQVNSLRAEDTAVYYCAKEAVLAALFDYWGQGTLVTVSS
VL: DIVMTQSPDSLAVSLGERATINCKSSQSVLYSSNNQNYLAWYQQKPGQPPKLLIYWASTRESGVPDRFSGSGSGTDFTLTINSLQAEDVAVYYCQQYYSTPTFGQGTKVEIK
notes: The antibody was captured by an anti-human Fc antibody in SPR
B2: H4H10232P (antibody, V domains shown)
VH: QVQLVESGGGVVQPGRSLRLSCVASGFTFRNYDMHWVRQAPGKGLEWVAVTSSDGLNKFYSDSVKGRFTISRDNSKNTLSLQITGLRAEDTAVYYCAKESILAALFDYWGQGTLVTVSS
VL: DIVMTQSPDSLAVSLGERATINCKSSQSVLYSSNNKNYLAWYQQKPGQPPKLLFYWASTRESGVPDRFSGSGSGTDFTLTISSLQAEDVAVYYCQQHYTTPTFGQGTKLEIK
B3: H4H10238P (antibody, V domains shown)
VH: QVQLVESGGGVVQPGRSLRLSCAASGFTFSSYGMHWVRQAPVKGLEWVAFISNDKSNKYYADSLKGRFTISRDNSKNTLYLQMNSLTAEDTAVYYCAKESILAALFDYWGQGTLVTVSS
VL: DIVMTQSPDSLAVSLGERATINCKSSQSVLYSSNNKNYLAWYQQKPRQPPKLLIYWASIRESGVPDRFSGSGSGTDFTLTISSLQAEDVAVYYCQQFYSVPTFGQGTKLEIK
B4: H4H10236P (antibody, V domains shown)
VH: B3 VH with A40T, V42G, N53Y, K55G, S56N, L64V, Y80F, T87R
VL: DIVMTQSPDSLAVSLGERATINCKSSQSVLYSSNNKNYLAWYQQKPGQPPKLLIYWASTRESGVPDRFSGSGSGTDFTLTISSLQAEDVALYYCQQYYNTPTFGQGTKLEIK
B5: H4H10237P (antibody, V domains shown)
VH: B3 VH with N53Y, K55G, L64V
VL: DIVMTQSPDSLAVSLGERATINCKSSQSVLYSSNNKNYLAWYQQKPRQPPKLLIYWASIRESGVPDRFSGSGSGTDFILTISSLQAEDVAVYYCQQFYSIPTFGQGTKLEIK
B6: H4H10270P (antibody, V domains shown)
VH: B3 VH with L64V, Y108S
VL: DIVMTQSPDSLAVSLGERATINCKSSQSVLYSSNNKNYLAWYQQKPRQPPKLLIYWASIRESGVPDRFSGSGSGADFTLTISSLQAADVAVYYCQQFYSVPTFGQGTKLEIK
B7: H4H10250P (antibody, V domains shown)
VH: B3 VH with N53F, K55G, A61T, L64V, V93I
VL: B6 VL with K51N, A75T, A87E, V91F, V100I
B8: H4H10231P (antibody, V domains shown)
VH: B3 VH with S31T, Y32F, S56N, Y59F, L64V, K76R, N77D, A88P
VL: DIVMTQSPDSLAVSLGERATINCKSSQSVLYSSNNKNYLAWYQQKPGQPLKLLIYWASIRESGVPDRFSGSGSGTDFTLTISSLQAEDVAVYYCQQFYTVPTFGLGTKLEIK
B9: H4H10223P (antibody, V domains shown)
VH: B3 VH with S30N, S31T, K58T, Y59F, L64V, Y80F, Q82E
VL: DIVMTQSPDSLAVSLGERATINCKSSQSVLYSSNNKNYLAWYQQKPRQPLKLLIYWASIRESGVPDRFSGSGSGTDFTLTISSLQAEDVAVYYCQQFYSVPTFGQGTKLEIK
notes: Kappa light chain variable region
B10: H4H10256P (antibody, V domains shown)
VH: B3 VH with S30R, S31T, N53K, K55G, N57D, A61V, L64V, Y80F
VL: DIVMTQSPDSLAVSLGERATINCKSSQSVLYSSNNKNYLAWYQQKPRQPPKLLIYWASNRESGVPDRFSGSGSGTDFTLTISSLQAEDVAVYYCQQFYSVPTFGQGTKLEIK

Numbering of substitutions follows the chain as printed.

The target in one assay is human glucagon (human). In words: cell-based or functional assay.
Take B1: the “IC50, inhibition of GCG activation of HEK293/CRE-luc/hGCGR cells (luciferase reporter, 40 pM GCG)” value amounted to 9.1e-10 M.

Regarding B2, the “IC50, inhibition of GCG activation of HEK293/CRE-luc/hGCGR cells (luciferase reporter, 40 pM GCG)” value was found to be 2.3e-11 M.

Turning to B3, the “IC50, inhibition of GCG activation of HEK293/CRE-luc/hGCGR cells (luciferase reporter, 40 pM GCG)” value is 1.8e-11 M.

Regarding B4, the “IC50, inhibition of GCG activation of HEK293/CRE-luc/hGCGR cells (luciferase reporter, 40 pM GCG)” value turned out to be 2.5e-10 M.

For B5, the “IC50, inhibition of GCG activation of HEK293/CRE-luc/hGCGR cells (luciferase reporter, 40 pM GCG)” value is 3.4e-11 M.

For the molecule B6, the “IC50, inhibition of GCG activation of HEK293/CRE-luc/hGCGR cells (luciferase reporter, 40 pM GCG)” value was 2.2e-11 M.

As for B7, the “IC50, inhibition of GCG activation of HEK293/CRE-luc/hGCGR cells (luciferase reporter, 40 pM GCG)” value is 3.4e-11 M.

As for B8, the “IC50, inhibition of GCG activation of HEK293/CRE-luc/hGCGR cells (luciferase reporter, 40 pM GCG)” value is 7.3e-12 M.

On to B9, for which the “IC50, inhibition of GCG activation of HEK293/CRE-luc/hGCGR cells (luciferase reporter, 40 pM GCG)” value amounted to 9.5e-12 M.

Take B10: the “IC50, inhibition of GCG activation of HEK293/CRE-luc/hGCGR cells (luciferase reporter, 40 pM GCG)” value was determined as 1.8e-11 M.

The target of a further assay is T1, human glucagon (human).
T1 construct: Bought peptide (Phoenix Pharmaceuticals, #028-02); 29 residue hormone; also called GCG; human GCG
T1 sequence (peptide, as listed by the source): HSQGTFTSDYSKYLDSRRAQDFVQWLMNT
In words: SPR Biacore 4000, antibody captured by anti-human Fc, GCG injected, 25 C. The procedure: (§1) Experiments were performed at 25° C. and 37° C.
(§2) Kinetic association (kₐ) and dissociation (kd) rate constants were determined by processing and fitting the data to a 1:1 binding model using Scrubber 2.0c curve fitting software. Binding dissociation equilibrium constants (KD) and dissociative half-lives (t½) were calculated from the kinetic rate constants as: […]
In general, Kd refers to the constant that tells how readily two partners part at equilibrium. A low value points to a tighter complex. A word on the koff: it is a measure of how fast the partners let go of each other. Higher therefore signals fast dissociation. For orientation: kon means the second-order rate constant of association. A low value points to slower complex formation. As a reminder, the t½ is the time needed for the level to fall by half in the phase considered. A high value points to slow decline. B1 yielded a Kd of 0.715 nM, an off-rate (koff) of 0.00178 s⁻¹, a kon of 2.5e+06 M⁻¹ s⁻¹ and a t½ of 6 min.

B2 returned a Kd of 0.0724 nM, a koff of 0.000231 s⁻¹, a kon of 3.19e+06 M⁻¹ s⁻¹ and a t½ of 50 min.

B3 returned an equilibrium dissociation constant (Kd) of 0.16 nM, a dissociation rate constant (koff) of 0.00062 s⁻¹, a kon of 3.89e+06 M⁻¹ s⁻¹ and a t½ of 19 min.

B4 displayed a Kd of 0.242 nM, a koff of 0.000746 s⁻¹, an on-rate constant (kon) of 3.08e+06 M⁻¹ s⁻¹ and a t½ of 15 min.

B5 showed a Kd of 0.208 nM, a koff of 0.00103 s⁻¹, a kon of 4.96e+06 M⁻¹ s⁻¹ and a t½ of 11 min.

With B6, the Kd worked out at 0.153 nM, the off-rate (koff) amounted to 0.000732 s⁻¹, the kon worked out at 4.8e+06 M⁻¹ s⁻¹ and the t½ worked out at 16 min.

As to B7, the Kd amounted to 0.283 nM, the koff is 0.000939 s⁻¹, the kon amounted to 3.32e+06 M⁻¹ s⁻¹ and the t½ came to 12 min.

As for B8, binding was put at a Kd of 0.0927 nM, the koff stood at 0.000685 s⁻¹, the kon turned out to be 7.39e+06 M⁻¹ s⁻¹ and the t½ was found to be 17 min.

Molecule B9 came in with a Kd of 0.0578 nM, a koff of 0.000541 s⁻¹, a kon of 9.36e+06 M⁻¹ s⁻¹ and a t½ of 21 min.

B10 registered a Kd of 0.0753 nM, a koff of 0.000582 s⁻¹, a kon of 7.72e+06 M⁻¹ s⁻¹ and a t½ of 20 min.

The next assay has as its target T1, human glucagon. Put plainly: SPR Biacore 4000, antibody captured by anti-human Fc, GCG injected, 37 C. Here is the method: as §1, §2
(In general: In SPR one partner is held on a chip, and binding of the other changes the refractive index at the surface.)
For B1, the Kd worked out at 4.78 nM, the off-rate (koff) turned out to be 0.0236 s⁻¹, the kon turned out to be 4.9e+06 M⁻¹ s⁻¹ and the t½ worked out at 0.5 min.

B2 displayed a Kd of 0.318 nM, a koff of 0.00147 s⁻¹, a kon of 4.61e+06 M⁻¹ s⁻¹ and a t½ of 8 min.

Take B3: binding was put at a Kd of 0.555 nM, the koff is 0.00274 s⁻¹, the kon came out at 4.94e+06 M⁻¹ s⁻¹ and the t½ is 4 min.

The molecule B4 gave a dissociation constant Kd of 2.08 nM, a koff of 0.0088 s⁻¹, a kon of 4.25e+06 M⁻¹ s⁻¹ and a t½ of 1 min.

Turning to B5, binding was put at a Kd of 0.907 nM, the koff was determined as 0.00683 s⁻¹, the association rate constant (kon) stood at 7.53e+06 M⁻¹ s⁻¹ and the t½ amounted to 2 min.

Turning to B6, the Kd was found to be 0.559 nM, the koff amounted to 0.00378 s⁻¹, the kon was determined as 6.77e+06 M⁻¹ s⁻¹ and the t½ came to 3 min.

Consider B7, for which the Kd worked out at 1.27 nM, the koff is 0.00708 s⁻¹, the kon turned out to be 5.58e+06 M⁻¹ s⁻¹ and the t½ is 2 min.

In the case of B8, the dissociation constant (Kd) turned out to be 1.01 nM, the koff was 0.00245 s⁻¹, the kon came to 2.4e+06 M⁻¹ s⁻¹ and the t½ is 5 min.

On to B9, for which the Kd was determined as 0.347 nM, the koff turned out to be 0.00223 s⁻¹, the kon is 6.4e+06 M⁻¹ s⁻¹ and the t½ came out at 5 min.

In turn, B10 came in with a Kd of 0.314 nM, a koff of 0.00248 s⁻¹, a kon of 7.9e+06 M⁻¹ s⁻¹ and a t½ of 5 min.
